Results taken from patent US20250073355A1, “CD44-BINDING PEPTIDE REAGENTS AND METHODS” (THE REGENTS OF THE UNIVERSITY OF MICHIGAN, priority 2021, published 2025).
One block for each molecule: values may come before it. No end group written: not given here. IRDye800 = fluorophore linked at C-terminus via GGGSC linker

Columns and labels:
[1] = system: orthotopic human HCC xenograft tumors (SK-Hep1); assay: Photoacoustic imaging of orthotopic human HCC xenograft tumors; settings: post intravenous injection
Protocol: (§1) Human HCC xenograft tumors were implanted orthotopically in female nude athymic mice. First, ˜5×10^6 SK-Hep1 tumor cells were injected subcutaneously into the hind limb flank. Tumors were then monitored twice a week and allowed to grow to 1-2 cm in diameter for 10-30 days. A small horizontal incision was made below the sternum to expose the liver. The liver was incised with a sharp scalpel horizontally in parallel with the surface of the exposed liver. A piece of the subcutaneous tumor with dimensions of ˜1×1×1 mm^3 was implanted into the incision, and then the site was sealed with absorbable hemostatic material (surgical, Johnson & Johnson). The liver was returned to its original position after confirming hemostasis.
IRDye800-labeled target and control peptides (300 μM in 200 μL PBS) were intravenously injected in mice bearing orthotopical SK-Hep1 tumors. An unlabeled peptide (1.5 mM, 100 μL) was injected 30 min prior to the labeled peptide to compete for binding. ICG (2.46 mg/kg) was injected intravenously as a control. Three-dimensional (3D) images were acquired from 0 to 48 h post injection and reconstructed using PAI tomography system (Nexus 128, Endra) using Iex=774 nm excitation. The photoacoustic signal intensity was measured from the two-dimensional (2D) maximum intensity projection (MIP) images, and the pre-injection images were used for background.
The photoacoustic images were collected to evaluate the time course for peptide uptake, FIG. 14A. […] Indocyanine green (ICG) was also administered (2.46 mg/kg) for comparison.

SK-Hep1 cells [2] = assay: MTT cytotoxicity assay; assay type: cell-based, human; settings: up to 200 μg/mL, 24 hours
Protocol: The CD44-binding and control peptides were serially diluted over a range of concentrations and incubated with SK-Hep1 cells seeded in 96-well plates for 24 hours. The media was then removed, and MTT solution (100 μL, 0.5 mg/mL) was added. After 4 hours for incubation, the MTT solution was removed, and 150 μL of DMSO was added to each well to solubilize formazan crystals produced by living cells. Absorbance at Aabs=570 (test) and 630 nm (reference) was measured using a plate reader (VersaMax™ Tunable Microplate Reader). The half-maximum inhibitory concentration (IC50) was measured.
An MTT assay was performed to evaluate the cytotoxicity of CD44 peptides. Peptides were incubated with SK-Hep1 cells in increasing concentrations up to 200 μg/mL for 24 hours.

SK-Hep1 cells [3] = assay: Apparent association time constant; design: species or system human; settings: binding to SK-Hep1 cells
[4] = Serum stability by analytical RP-HPLC; assay type: in vitro ADME; settings: mouse serum, up to 24 hours, read-out: half-life T1/2 in serum (converted)
SK-Hep1 cells (CD44+) = assay: Confocal fluorescence microscopy of binding to SK-Hep1 cells; assay type: cell-based, human
Protocol: The cells were washed with PBS 1× and incubated with 4 μM of either target or control peptide for 3 min. The cells were then washed 3× in PBS, fixed with 4% paraformaldehyde (PFA) for 8 min, washed 3× with PBS then incubated with 2% BSA, 1% goat serum in PBS for 30 min. […] Confocal fluorescence images were collected on Leica SP8 confocal microscope using a 63× oil-immersion objective. Fluorescence intensities were quantified using custom MATLAB (Mathworks) software.

SK-Hep1 cells [5] = system: SK-Hep1 cells
Protocol: The apparent dissociation constant kd for peptide binding to cells was measured to assess the binding affinity. IRDye800-labeled target peptides were serially diluted in PBS at concentrations of 0, 10, 20, 40, 80, 100, and 200 nM. ˜10^5 SK-Hep1 cells were incubated with the peptides at 4° C. for 1 hour, washed with cold PBS, and the mean fluorescence intensities were measured using flow cytometry. The equilibrium dissociation constant kd=1/ka was calculated by performing a least squares fit of the data to the non-linear equation l=(l0+lmaxka [X])/([…]). l0 and lmax are the initial and maximum fluorescence intensities, corresponding to no peptide and at saturation, respectively, and [X] represents the concentration of the bound peptide. Prism 5.0 software (GraphPad Inc) was used to calculate kd.

[6] = system: CD44 downstream signaling (pAKT, pErk1/2); assay: Western blot of CD44 downstream cell signaling; assay type: cell-based, human; settings: 4 or 300 μM, 15 min, SK-Hep1 cells
Protocol: Western blots were performed to evaluate markers for activation of downstream cell signaling, FIG. 11. SK-Hep1 cells were incubated with either hyaluronan (HA) or peptide to evaluate activation of downstream signalling after binding to CD44. […] of low molecular weight HA (GLR001, R&D Systems) was added for 15 min. Peptides are added at concentrations of 4 and 300 μM for 15 min. Anti-CD44 antibody (#ab189524, Abcam), anti-AKT (#4691, Cell Signaling), anti-phospho-AKT (#9271, Cell Signaling), anti-ERK1/2 (#ab17942, Abcam,), anti-phospho-ERK1/2 (#ab50011, Abcam), and anti-β-Actin (#4967, Cell Signaling Technology) were used per manufacturer's instructions.

human HCC specimens = assay: Peptide validation in human HCC specimens ex vivo (immunofluorescence)
Protocol: A tissue microarray (TMA) of human HCC was generated to investigate specific binding by the CD44 peptide to human HCC. Formalin-fixed, paraffin-embedded (FFPE) sections of human liver were obtained from the archived tissue bank in the Department of Pathology. The specimens were washed 3× in xylene for 3 min, 100% ethanol for 3 min, 95% ethanol for 3 min, 70% ethanol for 3 min, rinsed in H2O for 2 min. Antigen unmasking was performed by boiling the slides in 10 mM sodium citrate buffer with 0.05% Tween at pH 6.0 for 15 min. The slides were cooled to RT, and were washed in H2O 3× for 5 min. Blocking was performed with DAKO protein blocking agent (X0909, DAKO) for 1 hour at RT. The peptides at 1 μM concentration were incubated for 10 min at RT. The sections were washed 3× in PBST for 3 min, and incubated with 400 μL at 1:500 dilution of recombinant anti-CD44 (#ab189524, Abcam) overnight at 4° C. The sections were then washed 3× in PBST for 5 min. A 1:500 dilution of AF488-labeled secondary antibody (goat anti rabbit Alexa Fluor®488) was added to each section and incubated for 1 hour at RT. The secondary antibody solution was removed and washed 3× with PBST for 5 min. The sections were then mounted with ProLong Gold reagent containing DAPI (Invitrogen). The fluorescence images of each specimen were collected using confocal microscopy (SP8, Leica), and the mean fluorescence intensity from each image was measured from 3 boxes with dimensions of 20×20 μm^2 using custom MATLAB software. Regions of saturated image intensities were avoided.

[7] = system: orthotopic SK-Hep1 xenograft tumors; assay: Whole body fluorescence imaging of orthotopic human HCC xenograft tumors; settings: post intravenous injection
Protocol: as §1

[8] = Animal necropsy (histology, hematology); assay type: in vivo, mice; settings: 48 hours after systemic administration
Protocol: Whole blood was collected for evaluation of hematology and chemistry. Liver, kidney, heart, lung, spleen, stomach, intestine, and brain were harvested and submitted for routine histology (H&E). All slides were evaluated by a liver pathologist.

[9] = system: orthotopic human HCC xenograft tumors and major organs; assay: Peptide biodistribution in tumor-bearing mice; assay type: in vivo
From the text: The animals were euthanized at peak uptake after intravenous injection of the target and control peptides. Major organs, including heart, spleen, lung, liver, brain, stomach, kidney, intestine, were resected and exposed for white light and fluorescence imaging to measure peptide biodistribution. White light and NIR fluorescence images were collected from the major organs, FIG. 17.

CD44 = molecular target: T1, CD44 (Homo sapiens, UniProt P16070); assay: Competitive inhibition with unlabeled peptide on SK-Hep1 cells; assay type: cell-based; settings: competition
T1 construct: endogenous in cells; host or cells: SK-Hep1 (human HCC cells)
T1 sequence (P16070 21-742): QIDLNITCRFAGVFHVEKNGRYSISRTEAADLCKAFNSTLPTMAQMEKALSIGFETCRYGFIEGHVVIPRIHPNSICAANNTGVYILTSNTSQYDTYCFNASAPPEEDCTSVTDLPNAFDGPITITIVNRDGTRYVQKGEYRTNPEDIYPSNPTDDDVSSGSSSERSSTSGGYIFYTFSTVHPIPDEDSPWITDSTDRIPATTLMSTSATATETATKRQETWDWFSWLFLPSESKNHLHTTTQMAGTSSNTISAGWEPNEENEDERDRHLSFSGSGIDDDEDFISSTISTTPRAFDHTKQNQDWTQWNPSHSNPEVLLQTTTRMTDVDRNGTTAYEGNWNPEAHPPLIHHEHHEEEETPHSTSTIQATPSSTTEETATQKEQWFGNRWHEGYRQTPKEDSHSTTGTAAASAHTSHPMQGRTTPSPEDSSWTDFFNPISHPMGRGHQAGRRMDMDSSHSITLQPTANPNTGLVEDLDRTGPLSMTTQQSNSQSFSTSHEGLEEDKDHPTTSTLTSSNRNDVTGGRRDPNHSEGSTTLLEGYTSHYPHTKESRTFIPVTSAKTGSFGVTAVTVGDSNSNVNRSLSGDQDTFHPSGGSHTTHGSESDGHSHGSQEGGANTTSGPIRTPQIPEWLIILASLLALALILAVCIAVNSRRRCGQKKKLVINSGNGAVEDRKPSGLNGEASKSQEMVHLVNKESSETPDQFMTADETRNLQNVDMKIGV
Protocol: (§2) Specific peptide binding to CD44 was further validated using competitive inhibition by adding unlabeled peptide. Approximately […] SK-Hep1 cells were grown to ˜70% confluence on cover glass in triplicate. Unlabeled peptides at concentrations of 0, 10, 20, 40, 80, and 100 μM were incubated with the cells for 30 min at 4° C. The cells were washed with PBS and incubated with 5 μM of the target peptides for another 30 min at 4° C. The cells were washed and fixed with 4% PFA for 8 min. The cells were washed with PBS and mounted with ProLong Gold reagent containing DAPI (Invitrogen).

[10] = molecular target: T2, CD44 (Cluster of differentiation 44) (human, UniProt P16070 21-742); assay: confocal microscopy, SK-Hep1 control siRNA against CD44 knockdown cells
T2 construct: whole, on cells; The target is tied to CD44 by siRNA knockdown in SK-Hep1 cells; also called CD44 on human SK-Hep1 HCC cells
T2 sequence (P16070 21-742): as above

[11] = molecular target: T2, CD44 (Cluster of differentiation 44); assay: confocal microscopy on SK-Hep1 cells
[12] = molecular target: T2, CD44 (Cluster of differentiation 44); assay: flow cytometry on SK-Hep1 cells, labeled peptide 0-200 nM, 4 °C, 1 hour
Protocol: The apparent dissociation constant kd for peptide binding to cells was measured to assess the binding affinity [31]. IRDye800-labeled target peptides were serially diluted in PBS at concentrations of 0, 10, 20, 40, 80, 100, and 200 nM. ˜10⁵ SK-Hep1 cells were incubated with the peptides at 4° C. for 1 hour, washed with cold PBS, and the mean fluorescence intensities were measured using flow cytometry. The equilibrium dissociation constant kd=1/kₐ was calculated by performing a least squares fit of the data to the non-linear equation l=(l₀+lₘₐₓkₐ [X])/(l₀+kₐ[X]). l₀ and lₘₐₓ are the initial and maximum fluorescence intensities, corresponding to no peptide and at saturation, respectively, and [X] represents the concentration of the bound peptide. Prism 5.0 software (GraphPad Inc) was used to calculate kd.

[13] = molecular target: T2, CD44 (Cluster of differentiation 44); assay: competition against 5 µM WKG*-IRDye800 on SK-Hep1 cells; fourth of five concentrations of unlabeled peptide
Protocol: as §2

[14] = molecular target: T2, CD44 (Cluster of differentiation 44); assay: competition against 5 µM WKG*-IRDye800 on SK-Hep1 cells; first of five concentrations of unlabeled peptide (series 0, 10, 20, 40, 80, 100 µM; which five not stated)
Protocol: as §2

[15] = molecular target: T2, CD44 (Cluster of differentiation 44); assay: competition against 5 µM WKG*-IRDye800 on SK-Hep1 cells; second of five concentrations of unlabeled peptide
Protocol: as §2

[16] = molecular target: T2, CD44 (Cluster of differentiation 44); assay: competition against 5 µM WKG*-IRDye800 on SK-Hep1 cells; third of five concentrations of unlabeled peptide
Protocol: as §2

[17] = molecular target: T2, CD44 (Cluster of differentiation 44); assay: competition against 5 µM WKG*-IRDye800 on SK-Hep1 cells; fifth of five concentrations of unlabeled peptide
Protocol: as §2

[18] = 1 μM peptide, 10 min, FFPE human sections

Molecule: CC(C)C[C@H](NC(=O)[C@H](Cc1ccc(O)cc1)NC(=O)[C@H](CO)NC(=O)[C@H](Cc1c[nH]c2ccccc12)NC(=O)CNC(=O)[C@H](CCCCN)NC(=O)[C@@H](N)Cc1c[nH]c2ccccc12)C(=O)N[C@@H](Cc1c[nH]c2ccccc12)C(=O)N[C@H](C(=O)N[C@@H](CCC(N)=O)C(=O)N[C@@H](CCC(N)=O)C(=O)N[C@@H](C)C(=O)NCC(=O)NCC(=O)NCC(=O)N[C@@H](CO)C(=O)N[C@@H](CSC1CC(=O)N(CCNC(=O)CCCCCN2C(=CC=C3CCCC(C=CC4=[N+](CCCCS(=O)(=O)[O-])c5ccc(S(=O)(=O)O)cc5C4(C)C)=C3Oc3ccc(S(=O)(=O)O)cc3)C(C)(C)c3cc(S(=O)(=O)O)ccc32)C1=O)C(N)=O)[C@@H](C)O (stereo partly shown) [WKG*-IRDye800]
- time of return to baseline, photoacoustic [1]: ~24 h
- effect on cell viability (MTT) (SK-Hep1 cells [2]): no effect on cell viability until the highest concentrations were reached
- apparent association time constant (time) (SK-Hep1 cells [3]): 6.8 min
- apparent association time constant k (SK-Hep1 cells [3]): 0.26 min⁻¹
- half-life [4]: 5.1 h
- fluorescence intensity for binding to SK-Hep1 cells compared with Hep 3B cells (SK-Hep1 cells (CD44+); SK-Hep1 (CD44+) vs Hep 3B (CD44−)): Significantly greater
- Pearson correlation coefficient ρ of binding co-localization with anti-CD44-AF488 (SK-Hep1 cells (CD44+); merged image, SK-Hep1 cell surface): 0.81
- improved binding affinity by comparison with previously reported CD44 peptides (SK-Hep1 cells [5]): 3 fold
- Kd (SK-Hep1 cells [5]; read-out: apparent dissociation constant kd, SK-Hep1 cells, 4° C., 1 hour, flow cytometry): 43 nM
- effect on CD44 downstream signaling (phosphorylation of AKT and Erk1/2) [6]: no effect
- fluorescence intensity, HCC (mean±SD) (human HCC specimens; [18]): 1.47±0.50
- fluorescence intensity, adenoma (mean±SD) (human HCC specimens; [18]): 0.93±0.35
- fluorescence intensity, cirrhosis (mean±SD) (human HCC specimens; [18]): 0.67±0.34
- fluorescence intensity, normal human liver (mean±SD) (human HCC specimens; [18]): 0.56±0.21
- binding to the cell surface of HCC, immunofluorescence (human HCC specimens; human HCC sections): strong binding
- time of return to baseline, whole body fluorescence [7]: ~24 h
- acute toxicity, hematology and chemistry ([8]; n=3 mice): No acute peptide toxicity was observed
- toxicity on histology (H&E) of vital organs ([8]; normal healthy mice): No signs of toxicity
- intensity in adjacent normal liver region (mean±SD) ([9]; […] after intravenous injection): 0.92±0.45
- route of clearance ([9]; mouse, in vivo): primarily renal clearance

B1: WKG*-IRDye800 (peptide)
peptide: WKGWSYLWTQQAGGGSC-IRDye800
notes: Synthetic L-amino acid peptide made by Fmoc solid-phase synthesis on rink amide MBHA resin; also called CD44-directed peptide
- Kd [12]: 43 nM

Further lines, results first:

- change of WKG*-IRDye800 fluorescence intensities with increasing concentrations of unlabeled peptide (CD44): decreased significantly
Molecule: WKGWSYLWTQQA [WKG*]

- fold change in fluorescence intensity, siCL relative to siCD441 [10]: 4.1 fold
- fold change in fluorescence intensity, siCL relative to siCD442 [10]: 3.3 fold
- fold change in fluorescence intensity, siCL relative to siCD443 [10]: 3.1 fold
- fold change in fluorescence intensity relative to WYK*-IRDye800 (control) [11]: 5.61 fold
Molecule: rabbit anti-CD44 antibody (EPR18668, Abcam)

- fold change of fluorescence intensity relative to an equal concentration of WYK* [13]: 0.12 fold
- fold change of fluorescence intensity relative to an equal concentration of WYK* [14]: 1.02 fold
- fold change of fluorescence intensity relative to an equal concentration of WYK* [15]: 0.61 fold
- fold change of fluorescence intensity relative to an equal concentration of WYK* [16]: 0.36 fold
- fold change of fluorescence intensity relative to an equal concentration of WYK* [17]: 0.1 fold
B2: unlabeled WKG* (peptide)
peptide: WKGWSYLWTQQA
modifications: also: may carry GGGSC linker and C-terminal amide
notes: The m/z of 1913.87 printed for WKG* fits the 12-mer plus GGGSC with a C-terminal amide; also called unlabeled peptide
